The values below come from patent US20090110692A1 (UNIVERSITY OF IOWA RESEARCH FOUNDATION, published 2009).

Assay [1] has as its target T1, TLR4 stably expressed on HEK293 cells (HEK/TLR4) (UniProt O00206 24-839, limits assumed).
T1 construct: whole, on cells; also called Toll-like receptor 4; cellular TLR4
The experiment in a line: competition: excess free MD-2 against ^3H-LOS:MD-2 on HEK/TLR4 cells, liquid scintillation.

Assay [2] addresses T1, TLR4 stably expressed on HEK293 cells …. The experiment in a line: inferred from intermediate inhibition of HEK/TLR4 activation by LOS:MD-2 (IL-8).
Assay [3] shares this target. Nature of the assay: cell-based or functional assay.
For assay [4] the target is unchanged. Nature of the assay: inferred from dose-dependent inhibition of HEK/TLR4 activation by the wt complex (IL-8).
The target is the same in assay [5]. The experiment in a line: cell association of radiolabelled complex with HEK/TLR4 cells, overnight 37 C, liquid scintillation (FIG. 3).

T1 sequence (O00206 24-839 limits assumed): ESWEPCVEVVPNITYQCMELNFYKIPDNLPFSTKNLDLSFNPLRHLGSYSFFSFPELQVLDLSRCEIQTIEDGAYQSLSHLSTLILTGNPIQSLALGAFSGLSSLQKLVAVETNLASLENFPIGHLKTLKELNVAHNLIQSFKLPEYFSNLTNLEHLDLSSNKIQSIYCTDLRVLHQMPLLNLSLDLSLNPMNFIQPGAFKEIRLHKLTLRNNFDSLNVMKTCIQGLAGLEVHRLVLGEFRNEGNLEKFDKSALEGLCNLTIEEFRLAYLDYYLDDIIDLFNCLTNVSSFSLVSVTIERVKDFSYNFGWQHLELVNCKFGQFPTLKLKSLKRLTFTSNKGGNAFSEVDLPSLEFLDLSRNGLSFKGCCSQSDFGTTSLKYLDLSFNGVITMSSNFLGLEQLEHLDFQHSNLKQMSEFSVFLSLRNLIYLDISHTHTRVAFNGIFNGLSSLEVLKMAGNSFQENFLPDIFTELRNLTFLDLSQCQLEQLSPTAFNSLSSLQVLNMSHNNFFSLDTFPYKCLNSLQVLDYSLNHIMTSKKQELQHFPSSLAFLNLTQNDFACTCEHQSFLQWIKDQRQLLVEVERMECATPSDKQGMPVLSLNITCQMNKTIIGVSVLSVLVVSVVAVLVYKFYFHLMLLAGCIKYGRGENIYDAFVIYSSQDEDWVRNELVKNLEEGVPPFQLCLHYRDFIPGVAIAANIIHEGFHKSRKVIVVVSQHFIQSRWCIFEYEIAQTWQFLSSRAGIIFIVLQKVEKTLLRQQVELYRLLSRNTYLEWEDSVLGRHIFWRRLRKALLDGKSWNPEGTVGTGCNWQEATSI

B1: soluble recombinant wild-type MD-2-His6 (not complexed to endotoxin), in dialyzed conditioned insect cell medium (other, human)
chain: QKQYWVCNSSDASISYTYCDKMQYPISINVNPCIELKRSKGLLHIFYIPRRDLKQLYFNLYITVNTMNLPKRKEVICRGSDDDYSFCRALKGETVNTTISFSFKGIKFSKGKYKCVVEAISGSPEEMLFCLEFVILHQPNSNHHHHHH
notes: Used as unpurified conditioned medium (about 10 ng MD-2 per microliter after concentration); also called wt MD-2; rMD-2
Turning to B1, the binding result in assay [1] was “binds”.

B2: soluble recombinant C95Y mutant MD-2-His6, in dialyzed conditioned insect cell medium (other, human)
chain: QKQYWVCNSSDASISYTYCDKMQYPISINVNPCIELKRSKGLLHIFYIPRRDLKQLYFNLYITVNTMNLPKRKEVIYRGSDDDYSFCRALKGETVNTTISFSFKGIKFSKGKYKCVVEAISGSPEEMLFCLEFVILHQPNSNHHHHHH
notes: also called C95Y MD-2
In the case of B2, the binding result in assay [2] is “binds”.

B3: E:MD-2 K125A.F126A (monomeric complex of wild-type endotoxin with MD-2 mutant K125A.F126A) (ligand)
chain: QKQYWVCNSSDASISYTYCDKMQYPISINVNPCIELKRSKGLLHIFYIPRRDLKQLYFNLYITVNTMNLPKRKEVICRGSDDDYSFCRALKGETVNTTISFSFKGIAASKGKYKCVVEAISGSPEEMLFCLEFVILHQPNSN
As to B3, in assay [3], the “activation (IL-8) of HEK/TLR4 cells relative to wt E:MD-2” value is around 10%.

B4: E:MD-2 (F126A) (monomeric complex of wild-type LOS with MD-2 mutant F126A) (ligand)
chain: QKQYWVCNSSDASISYTYCDKMQYPISINVNPCIELKRSKGLLHIFYIPRRDLKQLYFNLYITVNTMNLPKRKEVICRGSDDDYSFCRALKGETVNTTISFSFKGIKASKGKYKCVVEAISGSPEEMLFCLEFVILHQPNSN
notes: also called LOS:MD-2 (F126A); F126A MD-2 mutant
For the molecule B4, the binding result in assay [4] was “binds”.

B5: LOS:sCD14 complex (monomeric complex of N. meningitidis lipooligosaccharide with soluble CD14, Mr ~60,000) (other)
chain: TTPEPCELDDEDFRCVCNFSEPQPDWSEAFQCVSAVEVEIHAGGLNLEPFLKRVDADADPRQYADTVKALRVRRLTVGAAQVPAQLLVGALRVLAYSRLKELTLEDLKITGTMPPLPLEATGLALSSLRLRNVSWATGRSWLAELQQWLKPGLKVLSIAQAHSPAFSCEQVRAFPALTSLDLSDNPGLGERGLMAALCPHKFPAIQNLALRNTGMETPTGVCAALAAAGVQPHSLDLSHNSLRATVNPSAPRCMWSSALNSLNLSFAGLEQVPKGLPAKLRVLDLSCNRLNRAPQPDELPEVDNLTLDGNPFLVPGTALPHEGSMNSGVVPACARSTLSVGVSGTLVL
notes: also called ^3H-LOS:sCD14; endotoxin:sCD14
As for B5, the binding result in assay [5] is reported as “no binding (tested: 0.75 ng/ml ^3H-LOS)”.
